Laboratory results published in paper doi:10.1101/2020.01.24.918300 (bioRxiv, 2020).

Biological target: the molecule itself
Assay: single-molecule photobleaching step counting on DNA tightropes

B1: cJun bZIP region fused to mNeonGreen (domain or fragment)
chain: RIKAERKRMRNRIAASKCRKRKLERIARLEEKVKTLKAQNSELASTANMLREQVAQLKQKVMNH
- stoichiometry N: 2
